In patent publication US20160002338A1 (Hoffmann-La Roche, published 2016):

Key:
[1] = molecular target: T1, human recombinant HER3 ECD (human, UniProt P21860 20-643); experiment: SPR Biacore T100, antibody captured, 25 C
T1 construct: 68 kDa; also called human-Her3-ECD; full length Her3 ECD
Procedure: (§1) A CM5 series sensor was mounted into the system and was normalized in HBS-ET buffer (10 mM HEPES pH 7.4, 150 mM NaCl, 3 mM EDTA, 0.005% w/v Tween 20) according to the manufacturer's instructions. The sample buffer was the system buffer supplemented with 1 mg/ml CMD (Carboxymethyldextran, Sigma #86524). The system operated at 25° C. 6500 RU RAM-Fcγ (relative units of Fcγ-fragment RamIgG, GE Healthcare) were immobilized according to the manufacturer's instructions using EDC/NHS chemistry on all four flow cells. The sensor was deactivated using 1M ethanolamine.
(§2) Analytes in solution were injected at different concentration steps of 0 nM, 1.1 nM, 3.7 nM, 11.1 nM, 33.1 nM and 90 nM for 3.5 min. The dissociation was monitored for 15 min. Where possible, kinetic signatures were evaluated according to a Langmuir fit.

HER3 ECD-HRG complex [2] = molecular target: T2, HER3 ECD-HRG complex (human, UniProt P21860 20-643); experiment: SPR Biacore T100, antibody captured, 25 C
T2 construct: also called Heregulin/Her-3 ECD
T2 sequence (P21860 20-643 limits assumed, one chain of several): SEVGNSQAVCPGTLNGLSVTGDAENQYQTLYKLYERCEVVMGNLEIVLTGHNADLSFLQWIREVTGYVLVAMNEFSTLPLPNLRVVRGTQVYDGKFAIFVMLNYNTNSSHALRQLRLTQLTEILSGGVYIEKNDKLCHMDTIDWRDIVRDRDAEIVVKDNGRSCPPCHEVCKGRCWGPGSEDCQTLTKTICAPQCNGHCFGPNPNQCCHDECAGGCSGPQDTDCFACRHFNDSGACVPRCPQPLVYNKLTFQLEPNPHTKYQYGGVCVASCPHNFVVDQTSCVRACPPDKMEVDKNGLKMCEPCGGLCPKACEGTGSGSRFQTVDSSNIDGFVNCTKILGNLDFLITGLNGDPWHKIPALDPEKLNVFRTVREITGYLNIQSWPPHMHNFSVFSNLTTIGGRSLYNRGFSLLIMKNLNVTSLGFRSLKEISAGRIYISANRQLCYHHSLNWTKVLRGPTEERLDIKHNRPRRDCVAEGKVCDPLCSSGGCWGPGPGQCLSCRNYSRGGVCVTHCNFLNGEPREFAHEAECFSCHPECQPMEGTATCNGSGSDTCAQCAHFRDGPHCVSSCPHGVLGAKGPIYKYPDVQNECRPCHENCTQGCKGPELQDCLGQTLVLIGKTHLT
Procedure: as §1, §2

[3] = molecular target: T3, human recombinant HER4 ECD (human, UniProt Q15303 26-651); experiment: SPR Biacore T100, antibody captured, 25 C
T3 construct: also called full length Her4 ECD
T3 sequence: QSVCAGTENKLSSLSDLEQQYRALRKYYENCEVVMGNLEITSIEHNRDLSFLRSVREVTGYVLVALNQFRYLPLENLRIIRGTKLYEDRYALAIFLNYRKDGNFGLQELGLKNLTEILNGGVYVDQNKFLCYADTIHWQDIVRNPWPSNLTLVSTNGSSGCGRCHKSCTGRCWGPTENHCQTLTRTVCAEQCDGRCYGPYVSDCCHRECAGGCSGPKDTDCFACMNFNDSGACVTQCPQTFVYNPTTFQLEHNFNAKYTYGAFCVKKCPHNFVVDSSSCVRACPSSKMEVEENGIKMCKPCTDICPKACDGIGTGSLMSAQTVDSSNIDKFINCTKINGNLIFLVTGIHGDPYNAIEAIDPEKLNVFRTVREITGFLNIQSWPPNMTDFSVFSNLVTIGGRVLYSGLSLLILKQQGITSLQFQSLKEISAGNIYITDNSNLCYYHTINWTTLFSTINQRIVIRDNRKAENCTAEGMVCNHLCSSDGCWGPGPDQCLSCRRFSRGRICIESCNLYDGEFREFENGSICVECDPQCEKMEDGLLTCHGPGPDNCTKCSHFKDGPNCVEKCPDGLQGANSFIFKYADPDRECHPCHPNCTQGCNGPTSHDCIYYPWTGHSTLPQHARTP
Procedure: as §1, §2

HER4 ECD-HRG complex [4] = molecular target: T4, HER4 ECD-HRG complex (human, UniProt Q15303 26-651); experiment: SPR Biacore T100, antibody captured, 25 C
T4 construct: HER4 ECD preincubated with a 5-fold molar excess of Heregulin; also called HER-4-ECD-RG
T4 sequence 1: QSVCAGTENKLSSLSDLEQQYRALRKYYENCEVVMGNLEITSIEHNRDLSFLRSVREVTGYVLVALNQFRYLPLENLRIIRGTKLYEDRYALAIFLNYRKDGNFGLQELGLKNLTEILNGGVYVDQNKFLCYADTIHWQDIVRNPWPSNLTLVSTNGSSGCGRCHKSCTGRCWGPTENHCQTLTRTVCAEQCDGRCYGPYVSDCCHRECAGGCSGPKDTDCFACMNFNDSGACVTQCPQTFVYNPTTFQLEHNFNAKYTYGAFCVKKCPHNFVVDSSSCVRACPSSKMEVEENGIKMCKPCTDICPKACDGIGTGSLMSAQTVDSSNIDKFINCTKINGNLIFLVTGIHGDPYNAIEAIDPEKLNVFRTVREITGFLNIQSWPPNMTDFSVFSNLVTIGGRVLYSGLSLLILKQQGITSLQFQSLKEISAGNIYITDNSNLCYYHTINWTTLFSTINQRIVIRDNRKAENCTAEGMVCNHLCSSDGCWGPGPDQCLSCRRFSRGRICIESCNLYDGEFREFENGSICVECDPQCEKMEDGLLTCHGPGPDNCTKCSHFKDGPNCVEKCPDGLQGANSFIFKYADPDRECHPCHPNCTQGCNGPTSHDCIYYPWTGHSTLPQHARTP
T4 sequence 2: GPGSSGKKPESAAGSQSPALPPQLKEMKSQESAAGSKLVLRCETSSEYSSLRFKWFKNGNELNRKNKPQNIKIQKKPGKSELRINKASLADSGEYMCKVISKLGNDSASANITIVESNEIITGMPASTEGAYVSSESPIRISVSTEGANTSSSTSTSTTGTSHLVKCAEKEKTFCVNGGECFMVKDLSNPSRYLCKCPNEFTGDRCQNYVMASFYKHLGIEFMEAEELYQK
Procedure: as §1, §2

[5] = molecular target: T5, human Heregulin fragment (HRG) (human); experiment: SPR Biacore T100, antibody captured, 25 C
T5 construct: also called Heregulin beta (HRG)
T5 chain: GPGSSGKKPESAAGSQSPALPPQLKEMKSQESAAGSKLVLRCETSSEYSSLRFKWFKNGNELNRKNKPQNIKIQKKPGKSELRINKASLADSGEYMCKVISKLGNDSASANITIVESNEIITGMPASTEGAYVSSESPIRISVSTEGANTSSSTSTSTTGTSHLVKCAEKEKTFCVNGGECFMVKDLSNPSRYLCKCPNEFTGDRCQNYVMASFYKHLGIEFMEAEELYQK
Procedure: as §1, §2

[6] = molecular target: T1, human recombinant HER3 ECD; experiment: SPR Biacore T200, antibody captured, 25 C
Procedure: (§3) A Biacore T200 instrument (GE Healthcare) was mounted with a CM5 series sensor. The sensor was normalized in HBS-ET buffer (10 mM HEPES pH 7.4, 150 mM NaCl, 3 mM EDTA, 0.05% w/v Tween 20) according to the manufacturer's instructions. The sample buffer was the system buffer supplemented with 1 mg/ml CMD (Carboxymethyldextran, Sigma #86524). The system operated at 25° C. 6500 RU RAM-Fey (relative units of Fey-fragment RamIgG, GE Healthcare) were immobilized according to the manufacturer's instructions using amine coupling EDC/NHS chemistry on all four flow cells. The sensor was deactivated using 1M ethanolamine. […] Concentration dependent kinetics were measured. […] All analytes were injected for 5 min association time and 10 min dissociation time at 100 μl/min flow rate. The sensor capture system was regenerated by a 3 min injection at 10 μl/min of 10 mM glycine pH 1.7. Where possible kinetic data was evaluated using the Biacore T200 evaluation software.

HER3 ECD-HRG complex [7] = molecular target: T2, HER3 ECD-HRG complex; experiment: SPR Biacore T200, antibody captured, 25 C
Procedure: as §3

[8] = molecular target: T3, human recombinant HER4 ECD; experiment: SPR Biacore T200, antibody captured, 25 C
Procedure: as §3

HER4 ECD-HRG complex [9] = molecular target: T4, HER4 ECD-HRG complex; experiment: SPR Biacore T200, antibody captured, 25 C
Procedure: as §3

TtSlyDcys-Her3 = molecular target: T6, TtSlyDcys-Her3; experiment: SPR Biacore T200, antibody captured, 25 C
T6 chain: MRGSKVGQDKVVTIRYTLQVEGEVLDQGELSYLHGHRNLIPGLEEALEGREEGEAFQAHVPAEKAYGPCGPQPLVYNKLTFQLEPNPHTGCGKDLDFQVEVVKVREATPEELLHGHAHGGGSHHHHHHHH
Procedure: as §3

human HER1 ECD = human HER1 ECD (human, UniProt P00533 25-645); experiment: SPR Biacore T200, antibody captured, 25 C
Procedure: as §3

TtSlyDcas = molecular target: T7, TtSlyDcas; experiment: SPR Biacore T200, antibody captured, 25 C
T7 construct: control scaffold without insert; N-terminal Met may be present or not
T7 chain: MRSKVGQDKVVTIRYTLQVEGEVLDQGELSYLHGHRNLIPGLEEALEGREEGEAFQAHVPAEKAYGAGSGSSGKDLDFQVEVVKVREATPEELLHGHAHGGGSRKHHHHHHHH
Procedure: as §3

T1 sequence (P21860 20-643): as the sequence (P21860 20-643 limits assumed, one chain of several) above

B1: anti-HER3/HER4 antibody M-05-74 (antibody, V domains shown)
VH: QVQLQQSGAELAKPGASVKMSCKTSGYTLTDYWIHWVKQRPGQGLEWIGYINPYTGYTESNQKFKDKATLTADKSSNTAYIQLSSLTSEDSAVYYCARPYYYGDYWGQGTTLTVSS
VL: QIVLTQSPAIMSASPGERVTITCSASSSVSYMHWFQQKPGTSPKLLIYSTSNLASGVPARFSGSGSGTSYSLTISRMEAEDAATYYCQQRSSYPFTFGSGTKLEIK
notes: murine monoclonal antibody from hybridoma (supernatant or purified); also called M-074; M-5-74
Binding Late BL [1]: 70 RU | Molar Ratio MR [1]: 0.2 | Binding Late BL (HER3 ECD-HRG complex [2]): 160 RU | Molar Ratio MR (HER3 ECD-HRG complex [2]): 0.6 | ratio MR (+Heregulin)/MR (-Heregulin) (HER3 ECD-HRG complex [2]): 3 | ratio ka (Her3-ECD-HRG)/ka (Her3-ECD) (HER3 ECD-HRG complex [2]): 4.85 | Binding Late BL [3]: 27 RU | Molar Ratio MR [3]: 0.1 | Binding Late BL (HER4 ECD-HRG complex [4]): 349 RU | Molar Ratio MR (HER4 ECD-HRG complex [4]): 0.6 | ratio MR (+Heregulin)/MR (-Heregulin) (HER4 ECD-HRG complex [4]): 6 | ratio ka (Her4-ECD-HRG)/ka (Her4-ECD) (HER4 ECD-HRG complex [4]): 23.9 | binding result [5]: no binding (tested: 90 nM) | Molar Ratio MR [6]: 0.1 | Molar Ratio MR (HER3 ECD-HRG complex [7]): 0.8 | Molar Ratio MR [8]: 0.1 | Molar Ratio MR (HER4 ECD-HRG complex [9]): 0.8 | Molar Ratio MR (TtSlyDcys-Her3): 1.9 | binding result (human HER1 ECD): no binding (tested: 90 nM) | Molar Ratio MR (TtSlyDcas): 0 | binding result (TtSlyDcas): no binding (tested: 90 nM)
